T1: human IL-11 (AAH12506.1, Pro22-Leu199) (human, UniProt P20809 22-199)
T1 construct: The range Pro22-Leu199 counts on AAH12506.1; The Octet runs say only 'human IL-11'; also called hIL-11
T1 chain: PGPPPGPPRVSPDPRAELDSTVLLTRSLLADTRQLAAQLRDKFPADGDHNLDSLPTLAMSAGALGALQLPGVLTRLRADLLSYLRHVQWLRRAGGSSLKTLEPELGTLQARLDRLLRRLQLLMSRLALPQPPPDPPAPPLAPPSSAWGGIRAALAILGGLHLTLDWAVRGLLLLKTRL

T2: IL-11 (Cat. 12225-HNCE, Sino Biological Inc.) (UniProt P20809 22-199, limits assumed)
T2 sequence (looked up): T1 chain with L154H

B1: 3C6-hFc (antibody, human IgG1, kappa)
heavy: not shown
light: DIVLTQSPASLALSPGERATLSCRASKSVSTSGYSYIHWYQQKPGQAPRLLIYLASNLDSGVPARFSGSGSGTDFTLTISSLEEEDFATYYCQHSRDLPPTFGQGTKLEIKRTVAAPSVFIFPPSDEQLKSGTASVVCLLNNFYPREAKVQWKVDNALQSGNSQESVTEQDSKDSTYSLSSTLTLSKADYEKHKVYACEVTHQGLSSPVTKSFNRGEC
notes: human IgG1 constant regions; also called positive control antibody; hz3C6
B2: hz8C8 (antibody, human IgG1, kappa, V domains shown)
VH: EVQLVESGGGLVQPGGSLRLSCAASGFTFSSFGMHWVRQAPGKGLEWVAYITSGSNTIYYADTVKGRFTISRDNAKNSLYLQMNSLRAEDTAVYYCAREYYSYDEGFAYWGQGTLVTVSS
VL: EIVLTQSPATLSLSPGERATLSCSVSSSISSNYLHWYQQKPGQAPRLLIYRTSNLASGIPARFSGSGSGTDFTLTISSLEPEDFAVYYCQQGVDVPFTFGQGTKLEIKR
notes: humanized, human constant regions; also called hz8C8-VH + hz8C8-VL; parent antibody hz8C8
B3: mu8C8 (antibody, V domains shown)
VH: DVQLVESGGGLVQPGGSRKLSCAASGFTFSSFGMHWVRQSPERGLEWVAYITSGSNTIYYADTVKGRFTISRDNPENTLFLQMTSLRSEDTAMYYCAREYYSYDEGFAYWGQGTLVTVSA
VL: EIVLTQSPTTMAASPGEKITITCSVSSSISSNYLHWYQQKPGFSPKLLIYRTSNLASGVPARFSGSGSGTSHSLTIDTMEAEDVATYYCQQGVDVPFTFGSGTKLEIKR
notes: also called recombinant murine antibody 8C8
B4: mu18A10 (antibody, V domains shown)
VH: QVQLQQPGAELVKPGASVKMSCKASGYKFITYNMDWVKQTPGQGLEWIGTIYPGNGDTSYNQKFKGKATLTADKSSSTAYMQLSSLTSEDSAVYYCARGDLYALDYWGQGTSVTVSS
VL: SIVMTQTPKFLLVSAGDRVTITCKASQSVSNDVAWYQQKPGQSPKLLIYSASNRYTGVPDRFTGSGYGTDFTFTINTVQAEDLAVYFCQHDYSSPYTFGGGTKLEIKR
notes: also called recombinant murine antibody 18A10
B5: hz8C8-VHm4 + hz8C8-VL (antibody, human IgG1, kappa, V domains shown)
VH: B2 VH with S55A
VL: B2 VL
notes: human IgG1 constant regions
B6: hz8C8-VHm6 + hz8C8-VLm7 (antibody, human IgG1, kappa, V domains shown)
VH: B2 VH with S53P, N56S
VL: B2 VL with S27D, S28L, S30P, N32Q
notes: human IgG1 constant regions
B7: hz8C8-VHm1-m13 + hz8C8-VLm7-m2 (antibody, human IgG1, kappa, V domains shown)
VH: B2 VH with S53P, Y109S
VL: B2 VL with S27D, S28L, S30P, N32Q, R51D, T52A
notes: human IgG1 constant regions
B8: hz8C8-VHm3 + hz8C8-VL (antibody, human IgG1, kappa, V domains shown)
VH: B2 VH with S53P, I58T
VL: B2 VL
notes: human IgG1 constant regions
B9: hz8C8-VHm2 + hz8C8-VL (antibody, human IgG1, kappa, V domains shown)
VH: B2 VH with S53A
VL: B2 VL
notes: human IgG1 constant regions
B10: hz8C8-VHm5 + hz8C8-VLm7 (antibody, human IgG1, kappa, V domains shown)
VH: B2 VH with H35S, S53P
VL: B2 VL with S27D, S28L, S30P, N32Q
notes: human IgG1 constant regions
B11: hz8C8-VHm1-m12 + hz8C8-VLm7-m2 (antibody, human IgG1, kappa, V domains shown)
VH: B2 VH with S53P, F107G
VL: B2 VL with S27D, S28L, S30P, N32Q, R51D, T52A
notes: human IgG1 constant regions
B12: hz18A10 (antibody, human IgG1, kappa, V domains shown)
VH: EVQLVQSGAEVKKPGASVKVSCKASGYTFTTYNMDWVRQAPGQGLEWMGTIYPGNGDTSYNQKFKGRVTMTRDTSTSTVYMELSSLRSEDTAVYYCARGDLYALDYWGQGTLVTVSS
VL: DIQMTQSPSSLSASVGDRVTITCKASQSVSNDVAWYQQKPGKAPKLLIYSASNRYTGVPSRFSGSGSGTDFTFTISSLQPEDIATYYCQHDYSSPYTFGQGTKLEIKR
notes: humanized, human constant regions; also called hz18A10-VH + hz18A10-VL; parent antibody hz18A10

Changes are numbered by the printed parent chain.

One assay deals with T1, human IL-11 (AAH12506.1, Pro22-Leu199). Description: BLI (Octet), antibody on AHC probe, human IL-11 in solution. How it is done: (§1) When the hybridoma cells were cultured to a certain number, culture supernatants were collected and purified using Protein G affinity chromatography to obtain murine hybridoma antibodies (Hy5C2, Hy8C8, Hy16B5, Hy18A10, Hy18H10, Hy23G6 and Hy29C11). The affinity of the murine antibodies purified from the hybridoma supernatants was determined using an Octet QKe System instrument from Fortebio Inc. with an anti-mouse IgG Fc Capture biosensor to capture the Fc fragments of the antibodies, for which an anti-IL-11 antibody named “3C6-mFc” recombinantly expressed was used at the same concentration as a positive control. Specifically, a hybridoma supernatant was diluted with HBS-EP+ buffer (GE), and was allowed to pass through the surface of AMC probes (Cat: 18-5088, PALL), and so the antibody in the hybridoma supernatant was captured on the surface of the probes; then, human IL-11 diluted in the HBS-EP+ buffer (300 nM) was used as a mobile phase to react with the antibody captured on the surface of the probes. Both the binding and the dissociating were conducted for 300 seconds. When the experiment was finished, data from which response values of blank controls had been deducted was fitted using a 1:1 Langmuir binding model by software, and then kinetic constants for antigen-antibody binding were calculated. Binding signals were detected on the Octet QKe System instrument with Hy5C2, Hy8C8, Hy16B5, Hy18A10, and Hy18H10.
(§2) The affinity of hz18A10 and hz8C8 was determined according to the method provided in Example 1 using AHC bioprobes for capturing human Fc fragment instead, with other conditions unchanged. A recombinantly expressed anti-IL-11 antibody 3C6-hFc was used at the same concentration as a positive control.
(In BLI a coated tip is dipped into the sample, and binding shifts an interference pattern.)
On to B1, for which the affinity, expressed as Kd, was 712 pM; the off-rate constant (koff) (as a rule, the rate constant with which the complex falls apart) was found to be 0.000581 s⁻¹; the association rate constant (kon) (in general, the rate constant with which the complex forms) came to 816000 M⁻¹ s⁻¹.
Turning to B2, the affinity, expressed as Kd, was 1600 pM; the off-rate constant (koff) was 0.00134 s⁻¹; the kon worked out at 836000 M⁻¹ s⁻¹.

For another assay, the target named is T2, IL-11 (Cat. 12225-HNCE, Sino Biological …). Description: competition ELISA: IL-11Rα-His coated, IL-11 + antibody + gp130-Fc. How it is done: (§3) The activity of the recombinant murine anti-IL-11 antibodies for blocking the formation of IL-11/IL-11Rα/GP130 complex was analyzed via competition ELISA. IL-11Rα-His (NP_004503.1, Met1-Val363, C-terminus-6-His Tag) was firstly added into ELISA plates to be coated overnight. Next day, samples were prepared as follows. […] After co-incubating and washing, an HRP conjugated anti-human Fc secondary antibody was added to develop the color which was then detected.
In general terms: ELISA stands for enzyme-linked immunosorbent assay.
Turning to B3, the IC50 (in general, the midpoint of a concentration-inhibition curve) amounted to 1.61 µg/mL.
On the same count and under the same terms, then B4, with 1.4 µg/mL.

The next assay shares this target. Kind of assay: competition ELISA, IL-11/IL-11Rα/GP130 complex. How it is done:
as §3
(§4) Then, light and heavy chain expression vectors for preparing mutant antibodies were constructed according to the method for preparing the recombinant antibodies provided in Example 4, using the mutant sequences shown in Table 3 which accordingly were linked with human IgG1 constant regions (SEQ ID NO. 13, and SEQ ID NO.14). Subsequently, the light chain and the heavy chain were reasonably matched and co-transfected into eukaryotic cells for transient expression, and then recombination protein samples of the mutant antibodies were obtained through affinity purification. The samples obtained were tested for affinity on Fortebio Octet, according to the method for measuring affinity provided in Example 1. Further, using the protocol provided in Example 3, hz8C8 and its affinity matured mutants were analyzed for their activity for blocking the formation of IL-11/IL-11Rα/GP130 complex.
With B1, the IC50 is 1.9 µg/mL.
As for B2, the concentration for half-maximal inhibition (IC50) was determined as 2.56 µg/mL.
The same measure, in the same setting: under B5 stands 1.01 µg/mL.
As for B6, the IC50 came to 0.54 µg/mL.
Still for that read-out and setting: then B7, with 0.54 µg/mL; and B8, with 0.828 µg/mL.
In the case of B9, the half-maximal inhibitory concentration (IC50) came out at 0.694 µg/mL.
In the case of B10, the IC50 came to 0.65 µg/mL.
The same measure, in the same setting: then B11, with 1.54 µg/mL.

In the next assay the target is T1, human IL-11 (AAH12506.1, Pro22-Leu199). Description: BLI (Octet), antibody on AHC probe, human IL-11 in solution. The source holds these as a separate data set. How it is done: as §1, §2
As to B1, the Kd (as a rule, the concentration at which binding is half-saturated) was determined as 712 pM; the dissociation rate constant (koff) was determined as 0.000581 s⁻¹; the on-rate constant (kon) worked out at 816000 M⁻¹ s⁻¹.
In the same order, the values of B12 are 3210 pM, 0.00249 s⁻¹ and 773000 M⁻¹ s⁻¹.

In a further assay the target is T2, IL-11 (Cat. 12225-HNCE, Sino Biological …). Description: cell-based or functional assay.
As for B1, the “Blocking activity (IC50), STAT3-luc reporter” value (shortened to “Blocking activity (IC50)”) turned out to be 0.342 µg/mL.
Consider B2, for which the “Blocking activity (IC50)” value worked out at 2.04 µg/mL.
Consider B5, for which the “Blocking activity (IC50)” value is 1.54 µg/mL.
Consider B6, for which the “Blocking activity (IC50)” value worked out at 0.066 µg/mL.
Take B7: the “Blocking activity (IC50)” value is 0.008 µg/mL.
Still for that read-out and setting: under B8 stands 0.946 µg/mL; under B9, 0.51 µg/mL.
Consider B10, for which the “Blocking activity (IC50)” value is 0.01 µg/mL.
Turning to B11, the “Blocking activity (IC50)” value came to 0.012 µg/mL.
Still for that read-out and setting: then B12, with 18.5 µg/mL.

For the next assay, the target named is T1, human IL-11 (AAH12506.1, Pro22-Leu199). Description: BLI (Octet), antibody captured, human IL-11 in solution. How it is done:
The affinity of the murine antibodies purified from the hybridoma supernatants was determined using an Octet QKe System instrument from Fortebio Inc. with an anti-mouse IgG Fc Capture biosensor to capture the Fc fragments of the antibodies, for which an anti-IL-11 antibody named “3C6-mFc” recombinantly expressed was used at the same concentration as a positive control. Specifically, a hybridoma supernatant was diluted with HBS-EP+ buffer (GE), and was allowed to pass through the surface of AMC probes (Cat: 18-5088, PALL), and so the antibody in the hybridoma supernatant was captured on the surface of the probes; then, human IL-11 diluted in the HBS-EP+ buffer (300 nM) was used as a mobile phase to react with the antibody captured on the surface of the probes. Both the binding and the dissociating were conducted for 300 seconds. When the experiment was finished, data from which response values of blank controls had been deducted was fitted using a 1:1 Langmuir binding model by software, and then kinetic constants for antigen-antibody binding were calculated. Binding signals were detected on the Octet QKe System instrument with Hy5C2, Hy8C8, Hy16B5, Hy18A10, and Hy18H10.
as §2
as §4, with “1.” for “1. Further, using the protocol provided in Example 3, hz8C8 and its affinity matured mutants were analyzed for their activity for blocking the formation of IL-11/IL-11Rα/GP130 complex.”
As to B5, the Kd worked out at 1370 pM, the koff worked out at 0.0012 s⁻¹ and the on-rate constant (kon) was 878000 M⁻¹ s⁻¹.
In the same order, the values of B6 are 156 pM, 0.000127 s⁻¹ and 812000 M⁻¹ s⁻¹.
For B7 the same measures were 57.3 pM, 4.32e-05 s⁻¹ and 753000 M⁻¹ s⁻¹.
With B8, the dissociation constant Kd is 4770 pM, the dissociation rate constant (koff) was 0.00216 s⁻¹ and the association rate constant (kon) was 453000 M⁻¹ s⁻¹.
For the molecule B9, the Kd came out at 727 pM, the koff worked out at 0.000586 s⁻¹ and the on-rate (kon) was 806000 M⁻¹ s⁻¹.
For B10 the same measures were 190 pM, 0.000175 s⁻¹ and 920000 M⁻¹ s⁻¹.
In the same order, the values of B11 are 7950 pM, 0.00139 s⁻¹ and 175000 M⁻¹ s⁻¹.

Values taken from patent US20250197488A1 (MABWELL SHANGHAI BIOSCIENCE, published 2025).
